# Results published in patent US7151087 (US Dept. of Health and Human Services, dated 2006).
# T1: CC CKR1, stably expressed on HEK 293 cells (Homo sapiens (Human), UniProt P32246 1-355)
# T1 construct: also called CC CKLR1
# T1 sequence: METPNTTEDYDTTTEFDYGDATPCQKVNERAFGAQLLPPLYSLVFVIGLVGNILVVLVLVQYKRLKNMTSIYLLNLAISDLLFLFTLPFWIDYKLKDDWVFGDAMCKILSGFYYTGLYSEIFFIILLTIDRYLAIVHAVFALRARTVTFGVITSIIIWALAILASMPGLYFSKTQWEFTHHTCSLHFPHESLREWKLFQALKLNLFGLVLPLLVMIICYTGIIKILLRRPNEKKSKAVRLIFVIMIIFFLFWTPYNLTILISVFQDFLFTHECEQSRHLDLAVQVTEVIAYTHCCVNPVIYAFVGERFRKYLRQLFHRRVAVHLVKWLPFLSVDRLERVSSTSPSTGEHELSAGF
# B1: MIP-1α (ligand, human, UniProt P10147 23-92, looked up)
# chain: ASLAADTPTACCFSYTSRQIPQNFIADYFETSSQCSKPGVIFLTKRSRQVCADPSEEWVQKYVSDLELSA
# notes: also called unlabeled MIP-1α
# B2: MIP-1β (ligand, human, UniProt P13236 24-92, looked up)
# chain: APMGSDPPTACCFSYTARKLPRNFVVDYYETSSLCSQPAVVFQTKRSKQVCADPSESWVQEYVYDLELN
# B3: RANTES (ligand, human, UniProt P13501 24-91, looked up)
# chain: SPYSSDTTPCCFAYIARPLPRAHIKEYFYTSGKCSNPAVVFVTRKNRQVCANPEKKWVREYINSLEMS
# notes: also called unlabeled RANTES
# Columns and labels:
# [1] = target: T1, CC CKR1, stably expressed on HEK 293 …; assay: radioligand binding at 37° C. to CC CKR1-transfected HEK 293 cells
# Description: (§1) After incubation for 1 h at 4° C. or 37° C., unbound chemokines were separated from cells by pelleting through a 10% sucrose/PBS cushion, and the cell-associated counts were determined.
# [2] = target: T1, CC CKR1, stably expressed on HEK 293 …; assay: homologous competition against ^125I-MIP-1α; reference CCR5.1 cells
# Description: as §1
# [3] = target: T1, CC CKR1, stably expressed on HEK 293 …; assay: homologous competition against ^125I-MIP-1α on CC CKR1-transfected HEK 293 cells, 4° C.
# Description: as §1
# Each of the six CCR5 transfectants were tested at 4° C.
# [4] = target: T2, CC chemokine receptor 5 (CCR5), clone 8.5 cDNA, stably expressed on HEK 293 cells (human, UniProt P51681 1-352); assay: homologous competition against ^125I-MIP-1α on CCR5.1 cells
# T2 construct: also called CC CKR5; CCR5 transfectants
# Description: as §1
# [5] = target: T1, CC CKR1, stably expressed on HEK 293 …; assay: heterologous competition against ^125I-RANTES on CC CKR1 cells, 37° C.
# Description: as §1
# [6] = target: T1, CC CKR1, stably expressed on HEK 293 …; assay: homologous competition against ^125I-MIP-1α on CC CKR1 cells
# Description: as §1
# [7] = target: T1, CC CKR1, stably expressed on HEK 293 …; assay: homologous competition against ^125I-MIP-1β on CC CKR1 cells
# Description: as §1
# [8] = target: T2, CC chemokine receptor 5 (CCR5), clone …; assay: homologous competition against ^125I-MIP-1β on CCR5.1 cells
# Description: as §1
# [9] = target: T2, CC chemokine receptor 5 (CCR5), clone …; assay: homologous competition against ^125I-MIP-1β; reference CC CKR1 cells
# Description: as §1
# [10] = target: T1, CC CKR1, stably expressed on HEK 293 …; assay: radioligand binding at 37° C. to CC CKR1 cells
# Description: as §1
# RANTES = target: B3; assay: radioligand binding to intact transfected HEK 293 cells, 0.2 nM ^125I-chemokine
# Description: as §1
# MIP-1β = target: B2; assay: as above
# Description: as §1
# MIP-1α = target: B1; assay: as above
# Description: as §1
# T2 sequence (P51681 whole entry): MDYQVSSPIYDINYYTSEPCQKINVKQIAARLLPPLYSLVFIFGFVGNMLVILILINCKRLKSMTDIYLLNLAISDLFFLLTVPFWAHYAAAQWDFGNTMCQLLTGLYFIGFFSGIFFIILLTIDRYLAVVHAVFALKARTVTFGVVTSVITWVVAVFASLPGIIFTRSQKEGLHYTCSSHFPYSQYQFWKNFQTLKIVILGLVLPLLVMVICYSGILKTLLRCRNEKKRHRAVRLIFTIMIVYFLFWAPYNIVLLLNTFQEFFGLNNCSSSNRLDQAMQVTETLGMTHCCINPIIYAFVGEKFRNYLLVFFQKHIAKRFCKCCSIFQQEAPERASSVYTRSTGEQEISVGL
binder,measurement,setting,value
"MCP-3 (ligand, also called unlabeled MCP-3) not shown",binding result,[1],binds
B1,fold more effective competition on CC CKR1 than on CCR5.1,[2],20 fold
same,Ki,[3],10 nM
same,IC50,[4],~100 nM
same,IC50,[5],~20 nM
same,IC50,[6],~5 nM
B2,IC50,[7],~200 nM
same,IC50,[8],~100 nM
same,fold more effective competition on CCR5.1 than on CC CKR1,[9],~2 fold
B3,binding result,[10],binds
"CC CKR2B, stably expressed on HEK 293 cells (receptor, also called CCR2b) MLSTSRSRFIRNTNESGEEVTTFFDYDYGAPCHKFDVKQIGAQLLPPLYSLVFIFGFVGNMLVVLILINCKKLKCLTDIYLLNLAISDLLFLITLPLWAHSAANEWVFGNAMCKLFTGLYHIGYFGGIFFIILLTIDRYLAIVHAVFALKARTVTFGVVTSVITWLVAVFASVPGIIFTKCQKEDSVYVCGPYFPRGWNNFHTIMRNILGLVLPLLIMVICYSGILKTLLRCRNEKKRHRAVRVIFTIMIVYFLFWTPYNIVILLNTFQEFFGLSNCESTSQLDQATQVTETLGMTHCCINPIIYAFVGEKFRRYLSVFFRKHITKRFCKQCPVFYRETVDGVTSTNTPSTGEQEVSAGL",binding result,RANTES,no binding
same,binding result,MIP-1β,no binding
same,binding result,MIP-1α,no binding
